In patent EP4803150A2 (Lyvgen Biopharma Holdings Limited, dated 2026):
Positions count from the first letter of the chain named.

T1: CD19 (human, UniProt P15391 20-556)
T1 construct: whole, on cells
T1 sequence (looked up): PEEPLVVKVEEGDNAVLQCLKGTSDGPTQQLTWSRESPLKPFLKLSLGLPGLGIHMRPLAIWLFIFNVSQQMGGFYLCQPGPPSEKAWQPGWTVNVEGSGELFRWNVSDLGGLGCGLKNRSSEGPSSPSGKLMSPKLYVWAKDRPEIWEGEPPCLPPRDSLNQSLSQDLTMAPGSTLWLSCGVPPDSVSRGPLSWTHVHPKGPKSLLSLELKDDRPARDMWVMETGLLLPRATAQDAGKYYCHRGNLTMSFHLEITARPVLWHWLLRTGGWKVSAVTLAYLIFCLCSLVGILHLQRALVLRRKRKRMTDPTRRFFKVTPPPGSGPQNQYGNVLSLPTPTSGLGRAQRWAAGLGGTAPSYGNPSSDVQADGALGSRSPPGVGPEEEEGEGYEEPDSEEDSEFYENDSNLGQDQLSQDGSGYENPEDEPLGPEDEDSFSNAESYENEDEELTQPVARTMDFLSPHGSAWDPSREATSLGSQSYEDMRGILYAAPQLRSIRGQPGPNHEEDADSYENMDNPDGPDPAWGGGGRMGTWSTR

B1: Ly2800 (multi-specific antibody)
chain 1: QVQLQQPGAELVKPGASVKMSCKASGYTFTSYNMHWVKQTPGRGLEWIGAIYPGNGDTSYNQKFKGKATLTADKSSSTAYMQLSSLTSEDSAVYYCARSTYYGGDWYFNVWGAGTTVTVSAASVAAPSVFIFPPSDEQLKSGTASVVCLLNNFYPREAKVQWKVDNALQSGNSQESVTEQDSKDSTYSLSSTLTLSKADYEKHKVYACEVTHQGLSSPVTKSFNRGECGGGGSGGGGSGGGGSGGGGSEVQLVESGGGLVQPGGSLRLSCAASGFTFSTYAMNWVRQAPGKGLEWVGRIRSKYNNYATYYADSVKGRFTISRDDSKNSLYLQMNSLKTEDTAVYYCVRHGNFGNSYVSWFAYWGQGTLVTVSSGGGGSDKTHTCPPCPAPELLGPSVFLFPPKPKDTLMISRTPEVTCVVVDVSHEDPEVKFNWYVDGVEVHNAKTKPREEQYNSTYRVVSVLTVLHQDWLNGKEYKCKVSNKALGAPIEKTISKAKGQPREPQVYTLPPSREEMTKNQVSLWCLVKGFYPSDIAVEWESNGQPENNYKTTPPVLDSDGSFFLYSKLTVDKSRWQQGNVFSCSVMHEALHNHYTQKSLSLSPGKGGGGSGGGGSGGGGSGGGGSQVQLVQSGAEVKKPGASVKVSCKASGYTFAGFEMHWVRQAPGQGLEWMGAIDPKTGGTDYNQKFKDRVTMTRDTSISTAYMELSRLRSDDTAVYYCARDLGYFDVWGQGTLVTVSS
chain 2: QVQLQQSGAELVRPGSSVKISCKASGYAFSSYWMNWVKQRPGQGLEWIGQIWPGDGDTNYNGKFKGKATLTADESSSTAYMQLSSLASEDSAVYFCARRETTTVGRYYYAMDYWGQGTTVTVSSASTKGPSVFPLAPSSKSTSGGTAALGCLVKDYFPEPVTVSWNSGALTSGVHTFPAVLQSSGLYSLSSVVTVPSSSLGTQTYICNVNHKPSNTKVDKKVEPKSCGGGGSGGGGSGGGGSGGGGSQAVVTQEPSLTVSPGGTVTLTCRSSTGAVTTSNYANWVQQKPGQAPRGLIGGTNKRAPWTPARFSGSLLGGKAALTITGAQAEDEADYYCALWYSNLWVFGGGTKLTVLGGGGSDKTHTCPPCPAPELLGPSVFLFPPKPKDTLMISRTPEVTCVVVDVSHEDPEVKFNWYVDGVEVHNAKTKPREEQYNSTYRVVSVLTVLHQDWLNGKEYKCKVSNKALGAPIEKTISKAKGQPREPQVYTLPPSREEMTKNQVSLSCAVKGFYPSDIAVEWESNGQPENNYKTTPPVLDSDGSFFLVSKLTVDKSRWQQGNVFSCSVMHEALHNHYTQKSLSLSPGKGGGGSGGGGSGGGGSGGGGSDIQMTQSPSSLSASVGDRVTITCRASQDIRSNLNWYQQKPGGAVKLLIYYTSRLHSGVPSRFSGSGSGTDYTLTISSLQPEDFATYFCQQSEKLPRTFGGGTKVEIR
chain 3: QIVLSQSPAILSASPGEKVTMTCRASSSVSYIHWFQQKPGSSPKPWIYATSNLASGVPVRFSGSGSGTSYSLTISRVEAEDAATYYCQQWTSNPPTFGGGTKLEIKSSASTKGPSVFPLAPSSKSTSGGTAALGCLVKDYFPEPVTVSWNSGALTSGVHTFPAVLQSSGLYSLSSVVTVPSSSLGTQTYICNVNHKPSNTKVDKKVEPKSC
chain 4: not shown
notes: CD19/CD20/CD3/CD137
B2: Ly2943 (multi-specific antibody)
chain 1: B1 chain 1
chain 2: B1 chain 2 with H575R, Y576F
chain 3: B1 chain 3
chain 4: not shown
notes: CD19/CD20/CD3/CD137
B3: Ly2802 (multi-specific antibody)
chain 1: QVQLQQSGAELVRPGSSVKISCKASGYAFSSYWMNWVKQRPGQGLEWIGQIWPGDGDTNYNGKFKGKATLTADESSSTAYMQLSSLASEDSAVYFCARRETTTVGRYYYAMDYWGQGTTVTVSSASVAAPSVFIFPPSDEQLKSGTASVVCLLNNFYPREAKVQWKVDNALQSGNSQESVTEQDSKDSTYSLSSTLTLSKADYEKHKVYACEVTHQGLSSPVTKSFNRGECGGGGSGGGGSGGGGSGGGGSEVQLVESGGGLVQPGGSLRLSCAASGFTFSTYAMNWVRQAPGKGLEWVGRIRSKYNNYATYYADSVKGRFTISRDDSKNSLYLQMNSLKTEDTAVYYCVRHGNFGNSYVSWFAYWGQGTLVTVSSGGGGSDKTHTCPPCPAPELLGPSVFLFPPKPKDTLMISRTPEVTCVVVDVSHEDPEVKFNWYVDGVEVHNAKTKPREEQYNSTYRVVSVLTVLHQDWLNGKEYKCKVSNKALGAPIEKTISKAKGQPREPQVYTLPPSREEMTKNQVSLWCLVKGFYPSDIAVEWESNGQPENNYKTTPPVLDSDGSFFLYSKLTVDKSRWQQGNVFSCSVMHEALHNHYTQKSLSLSPGKGGGGSGGGGSGGGGSGGGGSQVQLVQSGAEVKKPGASVKVSCKASGYTFAGFEMHWVRQAPGQGLEWMGAIDPKTGGTDYNQKFKDRVTMTRDTSISTAYMELSRLRSDDTAVYYCARDLGYFDVWGQGTLVTVSS
chain 2: QVQLQQPGAELVKPGASVKMSCKASGYTFTSYNMHWVKQTPGRGLEWIGAIYPGNGDTSYNQKFKGKATLTADKSSSTAYMQLSSLTSEDSAVYYCARSTYYGGDWYFNVWGAGTTVTVSAASTKGPSVFPLAPSSKSTSGGTAALGCLVKDYFPEPVTVSWNSGALTSGVHTFPAVLQSSGLYSLSSVVTVPSSSLGTQTYICNVNHKPSNTKVDKKVEPKSCGGGGSGGGGSGGGGSGGGGSQAVVTQEPSLTVSPGGTVTLTCRSSTGAVTTSNYANWVQQKPGQAPRGLIGGTNKRAPWTPARFSGSLLGGKAALTITGAQAEDEADYYCALWYSNLWVFGGGTKLTVLGGGGSDKTHTCPPCPAPELLGPSVFLFPPKPKDTLMISRTPEVTCVVVDVSHEDPEVKFNWYVDGVEVHNAKTKPREEQYNSTYRVVSVLTVLHQDWLNGKEYKCKVSNKALGAPIEKTISKAKGQPREPQVYTLPPSREEMTKNQVSLSCAVKGFYPSDIAVEWESNGQPENNYKTTPPVLDSDGSFFLVSKLTVDKSRWQQGNVFSCSVMHEALHNHYTQKSLSLSPGKGGGGSGGGGSGGGGSGGGGSDIQMTQSPSSLSASVGDRVTITCRASQDIRSNLNWYQQKPGGAVKLLIYYTSRLHSGVPSRFSGSGSGTDYTLTISSLQPEDFATYFCQQSEKLPRTFGGGTKVEIR
chain 3: DIQLTQSPASLAVSLGQRATISCKASQSVDYDGDSYLNWYQQIPGQPPKLLIYDASNLVSGIPPRFSGSGSGTDFTLNIHPVEKVDAATYHCQQSTEDPWTFGGGTKLEIKSSASTKGPSVFPLAPSSKSTSGGTAALGCLVKDYFPEPVTVSWNSGALTSGVHTFPAVLQSSGLYSLSSVVTVPSSSLGTQTYICNVNHKPSNTKVDKKVEPKSC
chain 4: QIVLSQSPAILSASPGEKVTMTCRASSSVSYIHWFQQKPGSSPKPWIYATSNLASGVPVRFSGSGSGTSYSLTISRVEAEDAATYYCQQWTSNPPTFGGGTKLEIKRTVAAPSVFIFPPSDEQLKSGTASVVCLLNNFYPREAKVQWKVDNALQSGNSQESVTEQDSKDSTYSLSSTLTLSKADYEKHKVYACEVTHQGLSSPVTKSFNRGEC
notes: CD19/CD20/CD3/CD137
B4: Ly2944 (multi-specific antibody)
chain 1: B3 chain 1
chain 2: B3 chain 2 with H572R, Y573F
chain 3: B3 chain 3
chain 4: B3 chain 4
notes: CD19/CD20/CD3/CD137
B5: Ly2453 (multi-specific antibody)
chain 1: not shown
chain 2: QVQLVQSGAEVKKPGASVKVSCKASGYTFTDFWMSWVRQAPGQGLEWMGQIYPNTGTTHSNEKFKGRVTMTRDTSTSTVYMELSSLRSEDTAVYYCARSYHISTTPNWFAYWGQGTLVTVSSASTKGPSVFPLAPSSKSTSGGTAALGCLVKDYFPEPVTVSWNSGALTSGVHTFPAVLQSSGLYSLSSVVTVPSSSLGTQTYICNVNHKPSNTKVDKKVEPKSCGGGGSGGGGSGGGGSGGGGSDIQMTQSPSSVSASVGDRVTITCRASQGIYSWLAWYQQKPGKAPNLLIYTASTLQSGVPSRFSGSGSGTDFTLTISSLQPEDFATYYCQQANIFPLTFGGGTKVEIKGGGGSDKTHTCPPCPAPEAAGPSVFLFPPKPKDTLMISRTPEVTCVVVDVSHEDPEVKFNWYVDGVEVHNAKTKPREEQYNSTYRVVSVLTVLHQDWLNGKEYKCKVSNKALPAPIEKTISKAKGQPREPQVYTLPPSREEMTKNQVSLSCAVKGFYPSDIAVEWESNGQPENNYKTTPPVLDSDGSFFLVSKLTVDKSRWQQGNVFSCSVMHEALHNRFTQKSLSLSPG
chain 3: DIQMTQSPSSLSASVGDRVTITCKASQNVYKKLEWYQQKPGKVPKVLIYHTNILQTGVPSRFSGSGSGTDYTLTISSLQPEDVATYYCYQWNSGPTFGGGTKVEIKRTVAAPSVFIFPPSDEQLKSGTASVVCLLNNFYPREAKVQWKVDNALQSGNSQESVTEQDSKDSTYSLSSTLTLSKADYEKHKVYACEVTHQGLSSPVTKSFNRGEC
notes: PD-L1/CD40
B6: Ly2454 (multi-specific antibody, human IgG1, kappa)
chain 1: not shown
chain 2: QVQLVQSGAEVKKPGASVKVSCKASGYTFTDFWMSWVRQAPGQGLEWMGQIYPNTGTTHSNEKFKGRVTMTRDTSTSTVYMELSSLRSEDTAVYYCARSYHISTTPNWFAYWGQGTLVTVSSASTKGPSVFPLAPSSKSTSGGTAALGCLVKDYFPEPVTVSWNSGALTSGVHTFPAVLQSSGLYSLSSVVTVPSSSLGTQTYICNVNHKPSNTKVDKKVEPKSCDKTHTCPPCPAPEAAGPSVFLFPPKPKDTLMISRTPEVTCVVVDVSHEDPEVKFNWYVDGVEVHNAKTKPREEQYNSTYRVVSVLTVLHQDWLNGKEYKCKVSNKALPAPIEKTISKAKGQPREPQVYTLPPSREEMTKNQVSLSCAVKGFYPSDIAVEWESNGQPENNYKTTPPVLDSDGSFFLVSKLTVDKSRWQQGNVFSCSVMHEALHNRFTQKSLSLSPGGGGGSGGGGSGGGGSGGGGSDIQMTQSPSSVSASVGDRVTITCRASQGIYSWLAWYQQKPGKAPNLLIYTASTLQSGVPSRFSGSGSGTDFTLTISSLQPEDFATYYCQQANIFPLTFGGGTKVEIK
chain 3: B5 chain 3
notes: PD-L1/CD40

biological target: T2, CD137 (human, UniProt Q07011 24-186); assay: FCM or ELISA, graded
T2 construct: Whole on GS-H2-huCD137 reporter cells in the reporter assays; also called 4-1BB

binding result | Binder
binds | B1
binds | B2
binds | B3
binds | B4

biological target: T1, CD19; assay: CHO cells overexpressing CD19, graded

binding result | Binder
binds | B1
binds | B2
binds | B3
binds | B4

biological target: T3, CD40 (human, UniProt P25942 21-193); assay: FCM or ELISA, graded
T3 construct: Whole on GS-H2-huCD40 reporter cells in the reporter assays
T3 sequence (P25942 21-193 limits assumed): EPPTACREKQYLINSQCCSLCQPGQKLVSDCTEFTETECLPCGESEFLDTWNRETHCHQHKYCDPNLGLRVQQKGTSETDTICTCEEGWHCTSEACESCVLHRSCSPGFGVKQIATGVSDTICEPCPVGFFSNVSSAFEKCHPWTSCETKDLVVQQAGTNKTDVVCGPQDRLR

binding result | Binder
binds | B5
binds | B6
